Laboratory results as given in article PMC8402216.

Target: T1, ErdR (CrbR), 6His-ErdR (Pseudomonas putida KT2440) (UniProt Q88MD8)
T1 sequence: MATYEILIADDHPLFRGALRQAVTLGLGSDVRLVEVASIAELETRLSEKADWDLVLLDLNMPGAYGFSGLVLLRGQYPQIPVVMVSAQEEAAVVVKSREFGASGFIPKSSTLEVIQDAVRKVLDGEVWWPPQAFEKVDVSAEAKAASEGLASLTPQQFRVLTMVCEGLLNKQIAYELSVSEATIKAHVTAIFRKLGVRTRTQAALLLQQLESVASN
Test: EMSA
Settings: 10 mM Tris-HCl pH 8, 2 mM MgCl2, 1 mM DTT, 10% glycerol, 12 ng/uL sheared salmon sperm DNA, 2 mM acetyl phosphate when needed; 2.5 ng DNA in 10 uL, 20 min at …

AATCGCCTTGCCGTTGCTGGCGAGGTGAATTTTATGGCGCTGGCCAAGGCCGAAACAGTGGGTGTTTTGATAAAGTGTTTTGACAGAATCTGTAACAATCCTGTGGCAAACCCCTCGTTTTTTCGTCGGCAAGGCTGTAA (double strand) [acsA-I (1) promoter]
binding: no binding

AGCAACGGCAAGGCGATTAACAACTGGTAACAGCCCCCACGAAGGCAAGCGTTAATCTCCATCTAATCCCGATAGTTAAAACTAGCAATACTCGCGGCGCCATAAGCGCCGCGTGCCCCCTCACGACCTTAGACAGGTAA (double strand) [acsA-I (2) promoter]
binding: no binding

CGCGAACGGGTCATCACTTTGTTACGCAATCGGTAAAACACCGTTGCATCTAAGACTAAGGTCGTCTGGTTGGCGTCCATCGGCAGCATAAAGTAAGGGTGTGGGTTCCATCCCGTATCTGTGCTGCTAGGACAAAAACA (double strand) [yjcH (actP-I) promoter]
binding: binds

TAGGCGTCCTTTTTGCTCATGAAACTGACCGTATCGCTATGCCGAACTATATATATCTATATATAGGTACCGGCCATGTTGTTCTCTGCCTCCATGGTCGGCTTGCGGCGGGGTGGTGCCCATTGGACGTAAGTCTATGA (double strand) [pp_0354 promoter]
binding: binds
binding signal: binds
